# Results published in paper doi:10.1101/2025.08.25.672233.
# Target: soluble mouse MXRA8-Fc (UniProt Q9DBV4)
# Details: read off a plot; for other: 1/IC50: mean of three biological replicates, parent: est. 2.6; for screen value: parent: est. 0
# UniProt Q9DBV4, sequence (Q9DBV4 22-336): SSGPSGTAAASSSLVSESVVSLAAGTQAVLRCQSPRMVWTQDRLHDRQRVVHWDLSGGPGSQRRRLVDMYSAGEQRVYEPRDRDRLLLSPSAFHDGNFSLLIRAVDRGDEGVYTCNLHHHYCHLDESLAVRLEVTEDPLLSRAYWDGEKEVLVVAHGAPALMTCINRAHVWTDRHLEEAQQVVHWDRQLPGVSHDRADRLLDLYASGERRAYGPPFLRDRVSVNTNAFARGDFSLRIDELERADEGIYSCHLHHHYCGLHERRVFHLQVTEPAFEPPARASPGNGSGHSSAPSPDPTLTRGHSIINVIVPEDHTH
Substance,other: 1/IC50,screen value
"CHIKV envelope proteins (E3-E2-6K-E1) from the 181/25 strain, unmutated, on pseudovirus E2:Q158T",2.1,-0.15
"CHIKV envelope proteins (E3-E2-6K-E1) from the 181/25 strain, unmutated, on pseudovirus E1:D158R",15,1.9
"CHIKV envelope proteins (E3-E2-6K-E1) from the 181/25 strain, unmutated, on pseudovirus E2:K189Y",140,2.4
"CHIKV envelope proteins (E3-E2-6K-E1) from the 181/25 strain, unmutated, on pseudovirus E1:K132N",0.3,-2.6
"CHIKV envelope proteins (E3-E2-6K-E1) from the 181/25 strain, unmutated, on pseudovirus E2:E24Y",1.1,1.9
"CHIKV envelope proteins (E3-E2-6K-E1) from the 181/25 strain, unmutated, on pseudovirus E1:K157C",0.71,-1.7
"CHIKV envelope proteins (E3-E2-6K-E1) from the 181/25 strain, unmutated, on pseudovirus E2:R119K",0.05,-3.5
"CHIKV envelope proteins (E3-E2-6K-E1) from the 181/25 strain, unmutated, on pseudovirus E2:H18A",3.2,1.6
"CHIKV envelope proteins (E3-E2-6K-E1) from the 181/25 strain, unmutated, on pseudovirus E2:A157S",9.4,0.85
"CHIKV envelope proteins (E3-E2-6K-E1) from the 181/25 strain, unmutated, on pseudovirus E2:I121E",0.05,-3.1
"CHIKV envelope proteins (E3-E2-6K-E1) from the 181/25 strain, unmutated, on pseudovirus E2:R178S",1,-2.3
"CHIKV envelope proteins (E3-E2-6K-E1) from the 181/25 strain, unmutated, on pseudovirus E2:K120D",0.17,-2.5
